According to PMC12326332:

How the values were obtained:
Assay in all cases: SPR; Biacore T200, CM-5 chip with coupled anti-GST nanobody; GST-tagged RNF38 LP variants captured, UBE2D2^S22R or UBE2D2^S22R,C85K–Ub as analyte; 25°C; 25 mM Tris–HCl pH 7.6, 150 mM NaCl, 1 mM DTT, 0.005% Tween-20; one-site binding model; two technical replicates
GST-RNF38^RING-R454A = GST-RNF38^RING-R454A (UniProt Q9H0F5)
GST-RNF38^RING-R454C = GST-RNF38^RING-R454C (UniProt Q9H0F5)
GST-RNF38^RING-R454D = GST-RNF38^RING-R454D (UniProt Q9H0F5)
GST-RNF38^RING-R454E = GST-RNF38^RING-R454E (UniProt Q9H0F5)
GST-RNF38^RING-R454F = GST-RNF38^RING-R454F (UniProt Q9H0F5)
GST-RNF38^RING-R454G = GST-RNF38^RING-R454G (UniProt Q9H0F5)
GST-RNF38^RING-R454H = GST-RNF38^RING-R454H (UniProt Q9H0F5)
GST-RNF38^RING-R454I = GST-RNF38^RING-R454I (UniProt Q9H0F5)
GST-RNF38^RING-R454K = GST-RNF38^RING-R454K (UniProt Q9H0F5)
GST-RNF38^RING-R454L = GST-RNF38^RING-R454L (UniProt Q9H0F5)
GST-RNF38^RING-R454M = GST-RNF38^RING-R454M (UniProt Q9H0F5)
GST-RNF38^RING-R454N = GST-RNF38^RING-R454N (UniProt Q9H0F5)
GST-RNF38^RING-R454P = GST-RNF38^RING-R454P (UniProt Q9H0F5)
GST-RNF38^RING-R454Q = GST-RNF38^RING-R454Q (UniProt Q9H0F5)
GST-RNF38^RING-R454S = GST-RNF38^RING-R454S (UniProt Q9H0F5)
GST-RNF38^RING-R454T = GST-RNF38^RING-R454T (UniProt Q9H0F5)
GST-RNF38^RING-R454V = GST-RNF38^RING-R454V (UniProt Q9H0F5)
GST-RNF38^RING-R454W = GST-RNF38^RING-R454W (UniProt Q9H0F5)
GST-RNF38^RING-R454Y = GST-RNF38^RING-R454Y (UniProt Q9H0F5)
GST-RNF38^RING-WT = GST-RNF38^RING-WT (UniProt Q9H0F5)

Kd (GST-RNF38^RING-R454A)	Kd (GST-RNF38^RING-R454C)	Kd (GST-RNF38^RING-R454D)	Kd (GST-RNF38^RING-R454E)	Kd (GST-RNF38^RING-R454F)	Kd (GST-RNF38^RING-R454G)	Kd (GST-RNF38^RING-R454H)	Kd (GST-RNF38^RING-R454I)	Kd (GST-RNF38^RING-R454K)	Kd (GST-RNF38^RING-R454L)	Kd (GST-RNF38^RING-R454M)	Kd (GST-RNF38^RING-R454N)	Kd (GST-RNF38^RING-R454P)	Kd (GST-RNF38^RING-R454Q)	Kd (GST-RNF38^RING-R454S)	Kd (GST-RNF38^RING-R454T)	Kd (GST-RNF38^RING-R454V)	Kd (GST-RNF38^RING-R454W)	Kd (GST-RNF38^RING-R454Y)	Kd (GST-RNF38^RING-WT)	Substance
167 µM	209 µM	270 µM	755 µM	173 µM	393 µM	200 µM	111 µM	132 µM	166 µM	139 µM	623 µM	245 µM	101 µM	153 µM	160 µM	173 µM	63.1 µM	138 µM	105 µM	UBE2D2^S22R (from UniProt P62837 1-147) (enzyme)
60.4 µM	56.5 µM	69.8 µM	111 µM	45.4 µM	91 µM	55.7 µM	42 µM	30.2 µM	46.7 µM	31.2 µM	106 µM	82.7 µM	29.2 µM	59.5 µM	63 µM	53.9 µM	24.3 µM	23.8 µM	2.5 µM	UBE2D2^S22R,C85K–Ub (from UniProt P62837 2-147; P0CG48 1-76) (complex)
